From US11453711B2, “Fusion proteins of GLP-1 and GDF15 and conjugates thereof” (BEIJING QL BIOPHARMACEUTICAL CO., LTD., priority 2019, dated 2022) come the findings set out here.

Usually Tmax stands for the time from dosing to the highest level.

Substitutions are numbered along the chain they refer to.

A short description of series [1]: Body weight and food intake in lean C57BL/6 mice, lysine conjugated compounds, 15 nmol/kg daily sc 14 days. It counts as in vivo. As to conditions: for Body weight reduction at 15 nmol/kg (% reduction compared to vehicle)(Day11) / Cumulative food intake reduction at 15 nmol/kg (% reduction compared to vehicle)(Day11): C57 mice, 15 nmol/kg daily sc; for BW reduction: 15 nmol/kg daily sc 14 days, versus Semaglutide. As for the experimental part:
FIGS. 1A-1F show In vivo activities of fusion proteins. To evaluate the body weight and food intake effects of the fusion proteins, 10 week old male C57BL/6J mice were dosed everyday subcutaneously with 15 nmol/kg protein for 14 days. Food intake and body weight were measured daily. FIGS. 1A and 1B show body weight loss upon protein treatments from Day1 to Day15. […] FIGS. 1D and 1E show cumulative food intake with protein treatments from Day1 to Day15. […] Vehicle: 1.42 mg/mL disodium phosphate dihydrate, 14 mg/mL propylene glycol pH7.4. Data are expressed as mean values and standard error (SEM) for FIGS. 1A, 1B and 1C. n=5 for each treatment group. For FIGS. 1D, 1E and 1F, a pooled food intake was measured for each treatment group.
10 week old male C57BL/6 mice were injected everyday subcutaneously with 15 nmol/kg of the fusion protein conjugates (i.e., MLC002, MLC 004, MLC 005, MLC 006, MLC 007, MLC 008, and MLC 009) for 14 days. Food intake and body weight were measured daily and five animals were used for each treatment group. Body weight (BW) was monitored for each individual animal, but food intake for each group animals was measured together. Day 1 and Day 14 are first day and last day of molecule dosage. % BW loss=100*(BW on Day n-BW on Day 1)/(BW on Day 1). Cumulative food intake on Day n represents sum of food intake from Day 1 to Day n. Data are indicated as mean values and standard error (SEM) or pooled values. Statistical analysis was performed by One-way ANOVA. Body weight reduction on Day 11 is calculated by −1*(% BW loss−% BW loss of vehicle group); Cumulative food intake reduction is calculated by −100*(cumulative food intake-cumulative food intake of vehicle)/cumulative food intake of vehicle.

The nature of series [2]: Body weight and food intake in C57BL/6 mice, fusion protein conjugates, 30 nmol/kg daily 10 days. In kind it is in vivo. The method in brief:
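Male C57BL/6 mice received fusion protein conjugates by daily subcutaneous injection, with dosing running from Day 1 to Day 10. Body weight was recorded daily per animal and food intake daily per group. Body weight reduction was expressed relative to vehicle percent loss from Day 1. Cumulative food intake reduction was expressed as percent decrease versus vehicle.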

Series [3] can be described thus: Pharmacokinetic measurement in mouse, single sc dose 30 nmol/kg, plasma ELISA. As to conditions: for Cmax: read-out: Cmax (nmol/L), single sc dose 30 nmol/kg; for AUC0-24 h / Terminal t1/2 / Tmax: single sc dose 30 nmol/kg. For orientation: An ELISA detects its analyte on a solid surface through an enzyme-linked reagent.
Protocol: Each fusion protein was injected subcutaneously into C57BL/6 mice (n=3/group) once and plasma samples were collected at designed time points and analyzed by ELISA method. Plasma concentrations are indicated as mean values and standard error (SEM).
6-8 week old male C57BL/6 mice were administrated in a single subcutaneous dose of 30 nmol/kg of the fusion protein conjugates or unconjugated fusion proteins (i.e., MLC002, MLC004, MLC005, MLC006, MLC007, MLC008, MLC009, MLC013, MLC017, MLC047, MLC074, MLC075, MLC089, MLC093, MLC003 and MLC019) (n=3/group). Plasma samples were collected pre-dose (−5 min), 0.5 hr, 1 hr, 2 hr, 4 hr, 6 hr, 8 hr, 12 hr, 24 hr, 48 hr and 72 hr after the injection. The concentrations of the fusion protein conjugates in the plasma were measured by an ELISA assay which has immunoreactivity towards both GDF15 and intact N-terminal of GLP-1. Based on the graph showing plasma concentration of each protein versus time after subcutaneous injection, the pharmacokinetic parameters (including Tmax, Cmax, T1/2, AUC) were calculated by WinNonlin software.
Series [4] is described as follows: PK study in non-human primates, single sc dose 5 nmol/kg, plasma ELISA. As to conditions: monkey, single sc dose 5 nmol/kg.
Protocol: Plasma samples were collected pre-dose (−5 min), 2 hr, 4 hr, 6 hr, 8 hr, 24 hr, 48 hr, 72 hr, 96 hr, 120 hr, 144 hr, 216 hr, 288 hr, 360 hr, 432 hr and 504 hr after the injection. The concentrations of the fusion protein conjugates in the plasma were measured by an ELISA assay which has immunoreactivity towards both GDF15 and intact N-terminal of GLP-1. Based on the graph showing plasma concentration of each protein versus time after subcutaneous injection, the pharmacokinetic parameters (including Tmax, Cmax, T1/2, AUC) were calculated by WinNonlin software.

Take Semaglutide [reference compound]: in series [1], the “Body weight reduction at 15 nmol/kg (% reduction compared to vehicle)(Day11)” value was determined as 7.2% and the “Cumulative food intake reduction at 15 nmol/kg (% reduction compared to vehicle)(Day11)” value is 23.2%. For the same molecule, in series [2], the “Body weight reduction at 30 nmol/kg (% reduction compared to vehicle)(Day11)” value stood at 2.6% and the “Cumulative food intake reduction at 30 nmol/kg (% reduction compared to vehicle)(Day11)” value came out at 20.9%.

B1: MLC007: fusion polypeptide SEQ ID NO: 254 conjugated with Moiety A at 1K of Linker (conjugate)
chain: HGEGTFTSDVSSYLEEQAAREFIAWLVRGGGKQEPGQEPGQEPGQEPGQEPGQEPGQEPGQEPGAQPGAQPARQGDHCPLGPGRCCRLHTVRASLEDLGWADWVLSPREVQVTMCIGACPSQFRAANLHAQIKTSLHRLRPDTVPAPCCVPASYNPMVLIQRTDTGVSLQTYDDLLARDCHCI
modifications: Moiety A conjugated at linker K1
On to B1, for which, in series [1], the BW reduction result is given as “statistically significantly enhanced BW loss efficacy than Semaglutide”, the “Body weight reduction at 15 nmol/kg (% reduction compared to vehicle)(Day11)” value was 11.3% and the “Cumulative food intake reduction at 15 nmol/kg (% reduction compared to vehicle)(Day11)” value is 21.8%. For the same molecule, in series [3], the Cmax amounted to 10.4 nmol/L, the “AUC0-24 h” value amounted to 0.0638 µM·h, the “Terminal t1/2” value turned out to be 4.7 h and the “Tmax” value came out at 0.5 h.

B2: MLC006: fusion polypeptide SEQ ID NO: 253 conjugated with Moiety A at 36K of GLP-1 (conjugate)
chain: B1 chain with G30K, K32G
modifications: Moiety A conjugated at K36
As to B2, in series [1], the “Body weight reduction at 15 nmol/kg (% reduction compared to vehicle)(Day11)” value was 9.3% and the “Cumulative food intake reduction at 15 nmol/kg (% reduction compared to vehicle)(Day11)” value stood at 23.0%. Also, in series [3], the Cmax is 9.9 nmol/L, the “AUC0-24 h” value was found to be 0.0719 µM·h, the “Terminal t1/2” value came to 4.4 h and the “Tmax” value was 2.7 h.

B3: MLC002: fusion polypeptide SEQ ID NO: 249 conjugated with Moiety A at 26K of GLP-1 (conjugate)
chain: B1 chain with R20K, K32G
modifications: Moiety A conjugated at K26
Consider B3, for which, in series [1], the “Body weight reduction at 15 nmol/kg (% reduction compared to vehicle)(Day11)” value stood at 5.0% and the “Cumulative food intake reduction at 15 nmol/kg (% reduction compared to vehicle)(Day11)” value came out at 7.5%. Further, in series [3], the Cmax is 4.6 nmol/L, the “AUC0-24 h” value was 0.0362 µM·h, the “Terminal t1/2” value is 5.0 h and the “Tmax” value amounted to 1.2 h.

B4: MLC008: fusion polypeptide SEQ ID NO: 255 conjugated with Moiety A at 6K of Linker (conjugate)
chain: B1 chain with K32G, Q37K
modifications: Moiety A conjugated at linker K6
With B4, in series [1], the “Body weight reduction at 15 nmol/kg (% reduction compared to vehicle)(Day11)” value was 10.9% and the “Cumulative food intake reduction at 15 nmol/kg (% reduction compared to vehicle)(Day11)” value is 19.5%. Further, in series [3], the Cmax was 20.8 nmol/L, the “AUC0-24 h” value worked out at 0.0822 µM·h, the “Terminal t1/2” value was 4.2 h and the “Tmax” value was 0.7 h.

B5: MLC009: fusion polypeptide SEQ ID NO: 256 conjugated with Moiety A at 15K of Linker (conjugate)
chain: B1 chain with K32G, E46K
modifications: Moiety A conjugated at linker K15
On to B5, for which, in series [1], the BW reduction result was “statistically significantly enhanced BW loss efficacy than Semaglutide”, the “Body weight reduction at 15 nmol/kg (% reduction compared to vehicle)(Day11)” value came out at 14.6% and the “Cumulative food intake reduction at 15 nmol/kg (% reduction compared to vehicle)(Day11)” value was determined as 23.9%. Besides, in series [3], the Cmax amounted to 17 nmol/L, the “AUC0-24 h” value was 0.1578 µM·h, the “Terminal t1/2” value was determined as 4.2 h and the “Tmax” value amounted to 3.3 h.

B6: MLC005: fusion polypeptide SEQ ID NO: 252 conjugated with Moiety A at 12K of Linker (conjugate)
chain: B1 chain with K32G, P43K
modifications: Moiety A conjugated at linker K12
As to B6, in series [1], the “Body weight reduction at 15 nmol/kg (% reduction compared to vehicle)(Day11)” value came out at 12.6% and the “Cumulative food intake reduction at 15 nmol/kg (% reduction compared to vehicle)(Day11)” value is reported as 9.1%. In series [3], the Cmax is 16.7 nmol/L, the “AUC0-24 h” value stood at 0.1172 µM·h, the “Terminal t1/2” value worked out at 4.2 h and the “Tmax” value came to 2.0 h.

B7: MLC004: fusion polypeptide SEQ ID NO: 251 conjugated with Moiety A at 26K of GLP-1 (conjugate)
chain: HGEGTFTSDVSSYLEEQAAKEFIAWLVRGGGGQEPGAQPGQEPGAQPGQEPGAQPGQEPGAQPGQEPGAQPGQEPGAQPGAQPGAQPGAQPGAQPGAQPGAQPGAQPGAQPARQGDHCPLGPGRCCRLHTVRASLEDLGWADWVLSPREVQVTMCIGACPSQFRAANLHAQIKTSLHRLRPDTVPAPCCVPASYNPMVLIQRTDTGVSLQTYDDLLARDCHCI
modifications: Moiety A conjugated at K26
Take B7: in series [1], the BW reduction entry is recorded as “statistically significantly enhanced BW loss efficacy than Semaglutide”, the “Body weight reduction at 15 nmol/kg (% reduction compared to vehicle)(Day11)” value is recorded as 13.9% and the “Cumulative food intake reduction at 15 nmol/kg (% reduction compared to vehicle)(Day11)” value is listed as 21.8%. Further, in series [3], the Cmax was 15.1 nmol/L, the “AUC0-24 h” value amounted to 0.1745 µM·h, the “Terminal t1/2” value worked out at 7.4 h and the “Tmax” value is 3.3 h. In series [4], the “AUC0-96 h” value was 0.79 µM·h, the “Terminal t1/2” value was 13 h and the time to peak (Tmax) came to 8 h. In addition, the Cmax in series [4] (read-out: Cmax (nmol/L)) is 32.1 nmol/L. Also, in series [2], the “Body weight reduction at 30 nmol/kg (% reduction compared to vehicle)(Day11)” value came to 18.3% and the “Cumulative food intake reduction at 30 nmol/kg (% reduction compared to vehicle)(Day11)” value was determined as 35.0%.
